One may read the stoichiometry N as the number of molecules, sites or subunits per partner or assembly.

The values that follow come from publication PMC3726529 (Nature, 2013).

The target of series [1] is isolated TrkA from Vibrio parahaemolyticus (Vibrio parahaemolyticus).
The target of a further series is T1, isolated TrkA (VpTrkA) (Vibrio parahaemolyticus, UniProt Q87KD2).
T1 sequence (Q87KD2 1-458): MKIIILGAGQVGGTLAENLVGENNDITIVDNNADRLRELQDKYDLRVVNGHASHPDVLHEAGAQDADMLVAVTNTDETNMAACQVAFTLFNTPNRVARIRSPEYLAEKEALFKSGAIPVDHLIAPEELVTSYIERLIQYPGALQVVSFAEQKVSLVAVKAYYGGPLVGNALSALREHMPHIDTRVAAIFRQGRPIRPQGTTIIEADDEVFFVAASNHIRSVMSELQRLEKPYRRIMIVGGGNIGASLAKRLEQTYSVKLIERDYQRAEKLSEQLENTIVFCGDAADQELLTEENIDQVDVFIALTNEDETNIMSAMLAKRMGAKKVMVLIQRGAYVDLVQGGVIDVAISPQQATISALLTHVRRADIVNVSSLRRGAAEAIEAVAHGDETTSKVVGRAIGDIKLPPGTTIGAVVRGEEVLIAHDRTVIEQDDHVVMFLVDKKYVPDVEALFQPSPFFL
Briefly: co-crystal structure, […] Å. Format: binding. As to conditions: 10 mM ATPγS; GXGXXG motif in the N lobe of each RCK domain.

For series [2], the target named is TrkA from Vibrio parahaemolyticus, co-expressed with TrkH (Vibrio parahaemolyticus). Briefly: crystal structure.
The series “crystal structure” concerns the molecule itself. In words: crystal structure.

As for “isolated TrkA from Vibrio parahaemolyticus (natural protein)”, the stoichiometry N in series [1] came to 4.

As for `Nc1ncnc2c1ncn2[C@@H]1O[C@H](COP(=O)(O)OP(=O)(O)OP(O)(O)=S)[C@@H](O)[C@H]1O` [ATPγS, adenosine 5′-O-(3-thiotriphosphate)], the “co-crystal structure, 3.05 Å” value on isolated TrkA (VpTrkA) was “Each protomer contains two large densities consistent with ATPγS molecules”.

Regarding “TrkA from Vibrio parahaemolyticus, co-expressed with TrkH (natural protein)”, the stoichiometry N in series [2] stood at 4.

B1: TrkH from Vibrio parahaemolyticus (natural protein)
chain: MQFRSIIRIVGLLLALFSVTMLAPALVALLYRDGAGVPFVTTFFVLLFCGAMCWFPNRRHKHELKSRDGFLIVVLFWTVLGSAGSLPFLIADNPNISVTDAFFESFSALTTTGATVIVGLDELPKAILFYRQFLQWFGGMGIIVLAVAILPVLGIGGMQLYRAEIPGPVKDTKMTPRIAETAKALWYIYLSLTIACAVAFWLAGMTPFDAISHSFSTIAIGGFSTHDASMGYFDSYAINLITVVFLLISACNFTLHFAAFASGGVHPKYYWKDPEFRAFIFIQVLLFLVCFLLLLKHHSYTSPYDAFDQALFQTVSISTTAGFTTTGFADWPLFLPVLLLFSSFIGGCAGSTGGGMKVIRILLLTLQGARELKRLVHPRAVYTIKVGGSALPQRVVDAVWGFFSAYALVFVVCMLGLIATGMDELSAFSAVAATLNNLGPGLGEVALHFGDVNDKAKWVLIVSMLFGRLEIFTLLILLTPTFWRS
Regarding B1, the “stoichiometry N” value in the series “crystal structure” turned out to be 2.
